Experimental findings from patent US20230338477A1 (published 2023) are described below.

The test deals with T1, human transferrin receptor 1 (hTfR) (human, UniProt P02786 89-760, limits assumed).
T1 construct: also called TFRC; transferrin receptor protein 1
The test is described as follows: in vitro binding screen, method not described.

T1 sequence (P02786 89-760 limits assumed): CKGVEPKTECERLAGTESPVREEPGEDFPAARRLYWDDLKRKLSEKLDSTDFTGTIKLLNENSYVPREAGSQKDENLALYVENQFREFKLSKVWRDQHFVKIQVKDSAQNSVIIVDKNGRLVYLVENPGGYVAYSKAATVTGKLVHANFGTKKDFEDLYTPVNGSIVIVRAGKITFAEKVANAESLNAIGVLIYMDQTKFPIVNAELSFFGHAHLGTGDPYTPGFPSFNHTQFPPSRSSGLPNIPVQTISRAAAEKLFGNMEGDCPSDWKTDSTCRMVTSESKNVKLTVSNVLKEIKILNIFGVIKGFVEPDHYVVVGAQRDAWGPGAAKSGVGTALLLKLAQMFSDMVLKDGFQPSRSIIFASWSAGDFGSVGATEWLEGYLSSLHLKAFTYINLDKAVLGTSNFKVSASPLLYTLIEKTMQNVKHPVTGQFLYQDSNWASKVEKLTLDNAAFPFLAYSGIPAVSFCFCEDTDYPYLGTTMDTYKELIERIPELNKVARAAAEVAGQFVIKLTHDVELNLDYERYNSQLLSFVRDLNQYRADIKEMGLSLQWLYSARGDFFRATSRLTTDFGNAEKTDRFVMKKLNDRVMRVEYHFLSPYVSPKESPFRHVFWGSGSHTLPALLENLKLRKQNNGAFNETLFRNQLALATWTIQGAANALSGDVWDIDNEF

B1: 12795B (antibody, V domains shown)
VH: EVQLVESGGGLVQPGGSLRLSCATSGFTFTSYDMKWVRQAPGLGLEWVSAISGSGGNTYYADSVKGRFTISRDNSRNTLYLQMNSLRAEDTAVYYCTRSHDFGAFDYFDYWGQGTLVTVSS
VL: DIQMTQSPSSLSASVGDRVTITCRASQGIRDHFGWYQQKPGKAPKRLIYAASSLHSGVPSRFSGSGSGTEFTLTISSLQPEDFATYYCLQYDTYPLTFGGGTKVEIK
notes: Anti-hTfR antibody of the initial screen; only variable domains are tied to it
As to B1, the binding result is “binds”.

B2: 12801B (antibody, V domains shown)
VH: EVQLLESGGALVQPGGSLRLSCAASGFTFTSYAMHWVRQAPGKGLEWVSSIRGSGGGTYSADSVKGRFTISRDNSRDTLYLQMNSVRAEDTAVYYCARSHDYGAFDFFDYWGQGTLVTVSS
VL: DIQMTQSPSSLSASVGDRVTITCRASQGIRTDLGWYQQKPGKAPKRLIYAASSLQSGVPSRFSGSGSGTEFTLTISSLRPEDFATFYCLQYNSYPLTFGGGTKVEIK
notes: as for B1
In the case of B2, the binding result is recorded as “binds”.

B3: 12833B (antibody, V domains shown)
VH: QVQLVESGGGVVQPGRSLRLSCAASGFTFSSFGMHWVRQAPGKGLEWVIFISYDGSDKYYADSVKGRFAISRDSSKNTLYLQMNSLRAEDTAVYYCAKENGILTDSYGMDVWGQGTTVTVSS
VL: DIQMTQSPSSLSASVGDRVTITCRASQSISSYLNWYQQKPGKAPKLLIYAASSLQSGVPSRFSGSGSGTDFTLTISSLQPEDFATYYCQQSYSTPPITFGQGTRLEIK
notes: as for B1
On to B3, for which the binding result was “binds”.

B4: 69329 (antibody, V domains shown)
VH: EVQLVESGGGLVQPGGSLRLSCAASGFTFSNYWMTWVRQAPGKGLEWVANIKEDGSEKDYVDSVKGRFTISRDNAKNSLYLQMNSLRGEDTAVYYCARDGEQLVDYYYYYVMDVWGQGTTVTVSS
VL: DIQMTQSPSSVSASVGDRVTITCRASQGISSWLAWYQQKPGKAPKLLIYAASSLQSGVPSRFSGSGSGTDFTLTISSLQPEDFATYYCQKANSFPYTFGQGTKLEIK
notes: as for B1
For B4, the binding result is listed as “binds”.

B5: 12812B (antibody, V domains shown)
VH: QVQLVQSGAEVKKPGSSVRVSCKASRGTFSSYAISWVRQAPGQGLEWMGGIIPIFGTANYAQKFLARVTITADESTSTAYMELSSLRSEDTAVYYCAREKGWNYFDYWGQGTLVTVSS
VL: DIQMTQSPPSVSASVGDRVTITCRASQGISSWLAWYQQKPGKAPKLLIYAASSLQSGVPSRFSGSGSGTDFTLTISSLQPEDFATYYCQQANSFPRTFGQGTKVEIK
notes: as for B1
Regarding B5, the binding result is on record as “binds”.

B6: 12799B (antibody, V domains shown)
VH: QITLKESGPTLVKPTQTLTLTCTFSGFSLSTSGVGVVWIRQPPGKALEWLALIYWNDHKRYSPSLGSRLTITKDTSKNQVVLTMTNMDPVDTATYYCAHYSGSYSYYYYGLDVWGQGTTVTVSS
VL: DIQMTQSPSSVSASVGDRVTITCRASQGIASWLAWYQQKPGKAPELLIYAASSLQGGVPSRFSGSGSGTDFTLTISSLQPEDFAIYYCQQANYFPWTFGQGTKVEIK
notes: as for B1
Consider B6, for which the binding result is given as “binds”.

B7: 69307 (antibody, V domains shown)
VH: EVQLVESGGGLVQPGGSLRLSCTASGFTFSNYWMTWVRQAPGKGLEWVANIKEDGSEKEYVDSVKGRFTISRDNAKNSLYLQMNSLRGEDTAVYYCARDGEQLVDYYYYYVMDVWGQGTTVTVSS
VL: DIQMTQSPSSVSASVGDRVTITCRASQGISSWLAWYQQKPGKAPKLLIYAASSLQSGVPSRFSGSGSGTDFTLTISSLQPEDFATYYCQKADSLPYAFGQGTKLEIK
notes: as for B1
With B7, the binding result is “binds”.

B8: 12843B (antibody, V domains shown)
VH: EVQLVESGGGLVQPGGSLRLSCAASGFTFNIFEMNWVRQAPGKGLEWISYISSRGTTTYYADSVRGRFTISRDNAKNSLYLQMNSLRAEDTAVYYCARDYEATIPFDFWGQGTLVTVSS
VL: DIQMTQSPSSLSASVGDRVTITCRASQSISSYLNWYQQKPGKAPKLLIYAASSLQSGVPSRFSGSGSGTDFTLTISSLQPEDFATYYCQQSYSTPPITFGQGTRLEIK
notes: as for B1
In the case of B8, the binding result is recorded as “binds”.

B9: 12841B (antibody, V domains shown)
VH: EVQLVESGGGLVQPGGSLRLSCAASGFTFSNYWMNWVRQAPGKGLEWVANIKEDGGKKLYVDSVKGRFTISRDNAKNSLFLQMNSLRAEDTAVYYCAREDTTLVVDYYYYGMDVWGQGTTVTVSS
VL: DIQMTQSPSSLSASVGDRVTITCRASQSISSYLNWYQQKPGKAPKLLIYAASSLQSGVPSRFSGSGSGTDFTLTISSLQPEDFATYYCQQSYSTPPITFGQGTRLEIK
notes: as for B1
Take B9: the binding result is listed as “binds”.

B10: 12816B (antibody, V domains shown)
VH: QVQLVESGGGLVKPGGSLRLSCAASGFTFSDYYMNWIRQAPGKGLEWVSYISSSGTTIYYADSVKGRFTISRDNAKKSLYLEMNSLRAEDTAVYYCAREGYGNDYYYYGIDVWGQGTTVTVSS
VL: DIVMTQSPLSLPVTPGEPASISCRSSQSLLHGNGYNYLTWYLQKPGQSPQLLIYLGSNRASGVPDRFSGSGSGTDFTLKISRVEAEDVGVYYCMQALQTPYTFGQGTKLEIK
notes: as for B1
Take B10: the binding result was “binds”.

B11: 69261 (antibody, V domains shown)
VH: QVQLVESGGGLVKPGGSLRLSCAASGFTFSVYYMNWIRQAPGKGLEWVSYISSSGSTIYYADSVKGRFTISRDNAKNSLYLQMNSLRAEDTAVYYCGREGYSGTYSYYGMDVWGQGTTVTVSS
VL: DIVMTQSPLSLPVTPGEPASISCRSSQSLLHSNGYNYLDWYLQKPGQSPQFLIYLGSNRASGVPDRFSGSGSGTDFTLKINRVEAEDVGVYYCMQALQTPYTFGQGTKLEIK
notes: as for B1
Consider B11, for which the binding result is “binds”.

B12: 12808B (antibody, V domains shown)
VH: QLQLQESGPGLVKPSETLSLTCTVSGESISSNTYYWGWIRQPPGKGLEWIGSIDYSGTTNYNPSLKSRVTISVDTSRNHFSLRLRSVTAADTAVYYCAREWGNYGYYYGMDVWGQGTTVTVSS
VL: DIQMTQSPSSLSASVGDRVTINCRASQGIRNDLGWYQQKPGKAPKRLIYAASSLQSGVPLRFSGSGSGTEFTLTINNLQPEDFATYYCLSHNSYPWTFGQGTKVEIK
notes: as for B1
Take B12: the binding result was “binds”.

B13: 12845B (antibody, V domains shown)
VH: EVQLVESGGGLVQPGGSLRLSCAASGFTVSNYEMNWVRQAPGKGLEWVSYISSSTSNIYYADSVKGRFTISRDNAENSLYLQMNSLRVEDTAVYYCVRDGIVVVPVGRGYYYYGLDVWGQGTTVTVSS
VL: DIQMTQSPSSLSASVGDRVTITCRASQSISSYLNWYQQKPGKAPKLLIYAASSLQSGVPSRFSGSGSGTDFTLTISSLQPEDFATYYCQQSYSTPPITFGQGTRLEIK
notes: as for B1
Consider B13, for which the binding result is “binds”.

B14: 12847B (antibody, V domains shown)
VH: EVQLVESGGGLVQPGRSLRLSCAASGFTFDDYAMNWVRQAPGKGLEWVSGISWSSGSMDYADSVKGRFTISRDNAKNSLYLQMNSLRTEDTALYYCAKAREVGDYYGMDVWGQGTTVTVSS
VL: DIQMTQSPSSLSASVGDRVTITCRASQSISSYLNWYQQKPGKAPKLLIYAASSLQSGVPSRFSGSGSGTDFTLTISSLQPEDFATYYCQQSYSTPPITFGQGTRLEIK
notes: as for B1
For B14, the binding result was “binds”.

B15: 12850B (antibody, V domains shown)
VH: QVQLVQSGAEVKKPGSSVKVSCKASGGTFNTYAITWVRQAPGQGLEWMGGIIPISGIAEYAQKFQGRVTITTDDSSTTAYMELNSLRSEDTAVYYCASWNYALYYFYGMDVWGRGTTVTVSS
VL: not shown
notes: as for B1
B15: the binding result is “binds”.

B16: 12844B (antibody, V domains shown)
VH: EVQLVESGGSVVRPGGSLRLSCEASGFTFDDYGMSWVRQDPGKGLEWVSGINWNGDRTNYADSVKGRFIISRDNAKNSVYLQMNSLRAEDSALYHCARDQGLGVAATLDYWGQGTLVTVSS
VL: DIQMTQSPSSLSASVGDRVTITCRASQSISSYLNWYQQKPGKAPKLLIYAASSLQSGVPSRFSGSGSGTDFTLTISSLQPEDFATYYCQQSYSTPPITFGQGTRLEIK
notes: as for B1
On to B16, for which the binding result is recorded as “binds”.

B17: 12848B (antibody, V domains shown)
VH: EVQLVESGGGLVQPGRSLTLSCAASGFTFDNFGMHWVRQGPGKGLEWVSGLTWNSGVIGYADSVKGRFTISRDNAKNSLYLQMNSLRPEDTALYYCAKDIRNYGPFDYWGQGTLVTVSS
VL: not shown
notes: as for B1
Turning to B17, the binding result was “binds”.

B18: 12835B (antibody, V domains shown)
VH: EVQLVESGGGLIQPGGSLRLSCEASGFTFRNYEMNWVRQAPGKGLEWVSYISSSGNMKDYAESVKGRFTISRDNVKNSLQLQMNSLRVEDTAVYYCARDEFPYGMDVWGQGTTVTVSS
VL: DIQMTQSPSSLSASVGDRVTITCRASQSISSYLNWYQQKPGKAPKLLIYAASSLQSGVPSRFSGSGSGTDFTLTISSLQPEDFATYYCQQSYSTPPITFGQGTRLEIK
notes: as for B1
B18: the binding result is “binds”.

B19: 69305 (antibody, V domains shown)
VH: QVQLVESGGGVVQPGRSLRLSCAASGFTFSSYGMHWVRQAPGKGLEWVAVIWYDGSNKYYADSVKGRFTISRDISKNTLYLQMNSLRAEDTAVYYCAGQLDLFFDYWGQGTLVTVSS
VL: DIQMTQSPSSLSASVGDRVTITCRASQSIDRYLNWYRQKPGKAPKLLIYTTSSLQSGVPSRFSGSGSGTDFTLTLSSLQPEDFATYYCQQSYSPPLTFGGGTKVEIK
notes: as for B1
B19: the binding result was “binds”.

B20: 31874B (antibody, V domains shown)
VH: EVQLVESGGGLVQPGGSLRLSCAASGFAFSSYAMTWVRQAPGKGLEWVSVISGTGGSTYYADSVKGRFTISRDNSKNTLYLQMNSLRAEDTAVYYCAKGGAARRMEYFQYWGQGTLVTVSS
VL: DIQMTQSPSSLSASVGDRVTITCRASQGISNYLAWYQQKPGKVPNLLIYAASTLQSGVPSRFSGSGSGTDFTLTISSLQPEDVATYYCQKYNSAPLTFGGGTKVEIK
notes: as for B1
B20: the binding result was “binds”.

B21: 31863B (antibody, V domains shown)
VH: EVQLVESGGGLVQPGGSLRLSCAASGFTFNSYAMTWVRQAPGKGLEWVSFIGGSTGNTYYAGSVKGRFTISSDNSKKTLYLQMNSLRAEDTAVYYCAKGGAARRMEYFQHWGQGTLVTVSS
VL: DIQMTQSPSSLSASIGDRVTITCRASQGISNYLAWYQQKPGKVPKLLIYAASTLQSGVPSRFSGSGSGTDFTLTISSLQPEDVATYYCQNHNSVPLTFGGGTKVEIK
notes: as for B1
Regarding B21, the binding result is given as “binds”.

B22: 12798B (antibody, V domains shown)
VH: EVQLVESGGDLVQPGRSLRLSCAASGFTFDDYAMHWVRQAPGKGLEWVSGISWNSATRVYADSVKGRFTISRDNAKNFLYLQMNSLRSEDTALYHCAKDMDISLGYYGLDVWGQGTTVTVSS
VL: not shown
notes: as for B1
On to B22, for which the binding result was “binds”.

B23: 12834B (antibody, V domains shown)
VH: QVQLVQSGAEVKKPGASVKVSCKASGYTFTSYGISWVRQAPGQGLEWMGWISVYHGNTNYAQKFQGRVTMTTDTSTSTAYMELRSLRSDDTAVYYCAREGYYDFWSGYYPFDYWGQGTLVTVSS
VL: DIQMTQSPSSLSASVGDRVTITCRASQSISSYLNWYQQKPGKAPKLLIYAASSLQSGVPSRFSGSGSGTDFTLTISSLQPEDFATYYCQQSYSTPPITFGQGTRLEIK
notes: as for B1
As for B23, the binding result is “binds”.

B24: 69323 (antibody, V domains shown)
VH: EVQLVESGGGLVQPGRSLRLSCAASGFTFDDYAMHWVRQAPGKGLEWVSGISWNSGYIGYADSVKGRFTISRDNAENSLHLQMNSLRAEDTALYYCARGGSTLVRGVKGGYYGMDVWGQGTTVTVSS
VL: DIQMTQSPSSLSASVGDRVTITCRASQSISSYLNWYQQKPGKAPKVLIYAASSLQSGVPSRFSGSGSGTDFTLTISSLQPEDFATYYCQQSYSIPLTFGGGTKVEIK
notes: as for B1
For B24, the binding result is given as “binds”.

B25: 12839B (antibody, V domains shown)
VH: QVQLVESGGGVVQPGRSLRLSCAASGFPFSNYVMYWVRQAPGKGLEWVALIFFDGKKNYHADSVKGRFTITRDNSKNMLYLQMNSLRPEDAAVYYCAKIHCPNGVCYKGYYGMDVWGQGTTVTVSS
VL: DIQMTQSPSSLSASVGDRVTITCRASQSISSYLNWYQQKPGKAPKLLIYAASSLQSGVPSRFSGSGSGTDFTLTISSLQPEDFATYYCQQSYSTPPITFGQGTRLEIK
notes: as for B1
For B25, the binding result is “binds”.

B26: 12802B (antibody, V domains shown)
VH: QVQLVESGGGLVKPGGSLRLSCAASGFTFSDYFMSWIRQAPGKGLEWVSYISSTGSTINYADSVKGRFTISRDNVKNSLYLQMTSLRVEDTAVYYCTRDNWNYEYWGQGTLVTVSS
VL: EIVMTQSPATLSVSPGERATLSCRASQSVSINLAWYQQKPGQAPRLLIFVASTRATGIPARFSGSGSGTEFTLTISSLQSEDFATYYCQQYDIWPYTFGQGTKLEIK
notes: as for B1
As for B26, the binding result was “binds”.
